Measured values: publication PMC11112752 (Biochemistry, 2024)

Key:
SCOV1 nsp1 [1] = target: T1, SCOV1 nsp1 (SARS coronavirus 1 (Urbani strain), UniProt P0C6X7 1-180); experiment: EMSA; 7 uM nsp1; slow-moving complex; conditions: protein: recombinant; tags: expressed as GST fusion (pGEX); untagged 19 kDa form described, tag state in EMSA not explicit; label: biotin; hairpin
SCOV2 nsp1 [2] = target: T2, SCOV2 nsp1 (SARS coronavirus 2, UniProt P0DTD1 1-180); experiment: EMSA; 7 uM nsp1; conditions: protein: recombinant; tags: expressed as GST fusion (pGEX); label: biotin; hairpin
SCOV2 nsp1 [3] = target: T2, SCOV2 nsp1; experiment: EMSA; conditions: protein: recombinant; tags: expressed as GST fusion (pGEX); label: biotin; hairpin
SCOV1 nsp1 [4] = target: T1, SCOV1 nsp1; experiment: EMSA; prefolded RNA; S and L complexes, n=4; conditions: protein: recombinant; tags: expressed as GST fusion (pGEX); untagged 19 kDa form described, tag state in EMSA not explicit; label: biotin; hairpin
SCOV1 nsp1 [5] = target: T1, SCOV1 nsp1; experiment: EMSA; conditions: protein: recombinant; tags: expressed as GST fusion (pGEX); untagged 19 kDa form described, tag state in EMSA not explicit; label: biotin; stem-loop (-6.83 kcal/mol, RNAfold)
pull-down = target: the molecule itself; experiment: pull-down

AUUAAAGGUUUAUACCUUCCCAGGUAACAAAACCAACCAACUUUC (structured_RNA) [SCOV2-SL1]
binding result (SCOV1 nsp1 [1]): binds
binding result (SCOV2 nsp1 [2]): binds

AUAUUAGGUUUUUACCUACCCAGGAAAAGCCAACCAACCUCGAU (structured_RNA) [SCOV1-SL1]
binding result (SCOV2 nsp1 [3]): binds
Kd (SCOV1 nsp1 [4]): 1400 ± 120 nM

UCCUGCUUCAACAGUGCUUGGACGGAAC (structured_RNA) [control RNA (EMSA kit)]
binding result (SCOV1 nsp1 [5]): no binding

B1: SARS coronavirus 1 nonstructural protein 1 (nsp1) (natural protein)
chain: MESLVLGVNEKTHVQLSLPVLQVRDVLVRGFGDSVEEALSEAREHLKNGTCGLVELEKGVLPQLEQPYVFIKRSDALSTNHGHKVVELVAEMDGIQYGRSGITLGVLVPHVGETPIAYRNVLLRKNGNKGAGGHSYGIDLKSYDLGDELGTDPIEDYEQNWNTKHGSGALRELTRELNGG
binding result (pull-down): binds
